Drawing on publication PMC6426604, “First Betalain-Producing Bacteria Break the Exclusive Presence of the Pigments in the Plant Kingdom” (mBio, 2019), this text covers Km and kcat for one substance.

The subject of the data set is N[C@@H](Cc1ccc(O)c(O)c1)C(=O)O. Kind of data set: purified protein. The conditions noted are these: 50 mM sodium phosphate pH 6.5, 10 mM sodium ascorbate, 25 °C, air. It is filed as biochemical, Gluconacetobacter diazotrophicus.

Chain of GdDODA (4,5-DODA from Gluconacetobacter diazotrophicus) (Gluconacetobacter diazotrophicus PA1 5) (chain, as listed by the source): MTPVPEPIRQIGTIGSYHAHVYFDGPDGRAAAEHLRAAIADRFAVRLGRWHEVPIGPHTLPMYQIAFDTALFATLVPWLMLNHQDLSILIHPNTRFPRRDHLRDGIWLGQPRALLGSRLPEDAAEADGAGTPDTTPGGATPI

For the substance “GdDODA (4,5-DODA from Gluconacetobacter diazotrophicus) (Gluconacetobacter diazotrophicus PA1 5)”, the Km was found to be 1.36 ± 0.31 mM and the kcat was 0.50 ± 0.019 min⁻¹.
